From patent US20240376185A1 (SMIVET B V, published 2024) come the findings set out here.

The term IC50 denotes the concentration at which inhibition is half-maximal. Higher therefore signals weaker potency in that assay. The Kd is the free concentration of one partner at which half of the binding sites on the other are occupied at equilibrium, for simple one-to-one binding. A high value points to weaker binding. For orientation: koff means the rate constant with which the complex falls apart. A higher koff goes with a short-lived complex. The kon is the rate constant with which the complex forms. The low end stands for slow association, the high end for fast association.

Positions count from the first letter of the chain named. Numbers in names are those of the source.

The target in assay [1] is tetanus neurotoxin (TeNT), authentic tetanus holotoxin (Clostridium tetani, UniProt P04958 2-1315).
Assay [2] deals with T1, tetanus neurotoxin (TeNT), authentic tetanus holotoxin (Clostridium tetani, UniProt P04958 2-1315). This is another data set of the same source.
Assay [3] addresses T1, tetanus neurotoxin (TeNT), authentic …. Kind of assay: cell-based or functional assay.
Assay [4] concerns the target Tetanus neurotoxin (TeNT), authentic tetanus holotoxin (Clostridium tetani, UniProt P04958 2-1315).

B1: SVT20L-L123Q (VHH)
VHH: QVQLQQSGGGLVQAGGSLRLSCAASGRTMSSYAMGWFRQAPGKQREFVAAISRSGGNTYYTDSVKGRFTISRDNAKNTLYLQMNSLKPEETAVYYCAADPNLMYESKWKYRALEAWGQGTQVTVSS
Turning to B1, the IC50 in assay [1] was found to be 0.038 µg/mL.

B2: SVT34L-L123Q (VHH)
VHH: B1 VHH with Q6E, A14P, M29I, T69I, S85N
B2 returned an IC50 in assay [1] of 0.034 µg/mL.

B3: SVT16-L123Q-GS2-SVA12M2-H6 (bispecific antibody)
chain: QVQLQESGGGSVQAGDSLRLSCAASGRTISNYAMGWFRQAPGKQREFVAAISRSDNTYYTDSVKGRFTISRDNAKNTLYLQMNSLKPEETAVYYCAADPNLMYESKWKYRALEAWGQGTQVTVSSGGGGSGGGSEVQLVESGGGLVQAGGSLRLSCAASGRTFSYYPMAWFRQAPGQEREFVAAIIGADTTYYADSLKGRFTISRDNAKNMVYLQMNSLKPEDTAVYYCAARNTYWSDVYYREGQYTNWGQGTQVTVSSHHHHHH
In assay [2], B3 showed a Kd of 0.224 nM, a koff of 0.000199 s⁻¹ and a kon of 886000 M⁻¹ s⁻¹.

B4: SVT16-L123Q-GS2-SVG13M4-H6 (bispecific antibody)
chain: QVQLQESGGGSVQAGDSLRLSCAASGRTISNYAMGWFRQAPGKQREFVAAISRSDNTYYTDSVKGRFTISRDNAKNTLYLQMNSLKPEETAVYYCAADPNLMYESKWKYRALEAWGQGTQVTVSSGGGGSGGGSEVQLVESGGGLVQPGGSLRLSCEASGFTFDDYGMSWVRQAPGKGLEWVSSLTPNGGSTYYADSVKGRFTISRDNAKNTLYLQMNSLKPEDTALYYCAKNSYYGAMDYWGQGTQVTVSSHHHHHH
As for B4, in assay [3], the Endpoint dilution factor is < 1 and the “SDA concentration providing full protection” value is > 1000 nM. In assay [2], this molecule registered a Kd of 0.227 nM, a koff of 0.000184 s⁻¹ and a kon of 665000 M⁻¹ s⁻¹.

B5: SVT06-GS3-SVT16-L123Q-GS2-SVA12M2-H6 (bispecific antibody)
chain: QVQLQESGGGSVQAGGSLRLSCTASELSYDDYTIAWFRRAAGEGRVEDGEGVASITKSYDRAYDNKINYGHSVKGRFTISRDNAKNTVYLQMTDLLPSDTAVYYCALDITPPGGVGASLTEGFLFDYWGQGTQVTVSSGGGGSGGGGSGGGGSQVQLQESGGGSVQAGDSLRLSCAASGRTISNYAMGWFRQAPGKQREFVAAISRSDNTYYTDSVKGRFTISRDNAKNTLYLQMNSLKPEETAVYYCAADPNLMYESKWKYRALEAWGQGTQVTVSSGGGGSGGGSEVQLVESGGGLVQAGGSLRLSCAASGRTFSYYPMAWFRQAPGQEREFVAAIIGADTTYYADSLKGRFTISRDNAKNMVYLQMNSLKPEDTAVYYCAARNTYWSDVYYREGQYTNWGQGTQVTVSSHHHHHH
As to B5, in assay [3], the Endpoint dilution factor is > 32, the “Potency IU/mg” value was > 93.1 IU/mg and the “SDA concentration providing full protection” value was determined as 3.1 nM. In assay [2], this molecule yielded a Kd of 0.0133 nM, a koff of 1.32e-05 s⁻¹ and a kon of 989000 M⁻¹ s⁻¹.

B6: SVT06-SVT16-L123Q-GS2-SVG13M4-H6 (bispecific antibody)
chain: QVQLQESGGGSVQAGGSLRLSCTASELSYDDYTIAWFRRAAGEGRVEDGEGVASITKSYDRAYDNKINYGHSVKGRFTISRDNAKNTVYLQMTDLLPSDTAVYYCALDITPPGGVGASLTEGFLFDYWGQGTQVTVSSQVQLQESGGGSVQAGDSLRLSCAASGRTISNYAMGWFRQAPGKQREFVAAISRSDNTYYTDSVKGRFTISRDNAKNTLYLQMNSLKPEETAVYYCAADPNLMYESKWKYRALEAWGQGTQVTVSSGGGGSGGGSEVQLVESGGGLVQPGGSLRLSCEASGFTFDDYGMSWVRQAPGKGLEWVSSLTPNGGSTYYADSVKGRFTISRDNAKNTLYLQMNSLKPEDTALYYCAKNSYYGAMDYWGQGTQVTVSSHHHHHH
Regarding B6, in assay [4], the Kd came out at 0.0159 nM, the koff turned out to be 6.61e-06 s⁻¹ and the kon is 417000 M⁻¹ s⁻¹.
